These results are taken from patent US20190071490A1 (BETH ISRAEL DEACONESS MEDICAL CENTER, published 2019).

Broadly, the Kd is the equilibrium constant for the complex coming apart. For orientation: koff means the first-order rate constant of dissociation. A lower koff goes with slow dissociation.

Assay [1] has as its target T1, rat α-CGRP (1-37) (rat, C-terminal amide; N-terminal biotin when captured on the SA chip).
T1 construct: also called rat α (1-37); α-rat
T1 peptide: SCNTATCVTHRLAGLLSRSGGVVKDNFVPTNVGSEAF
Kind of assay: Biacore, 37°C, Fab over CGRP on SA chip. The essentials:
(§1)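 Fab analyte flowed over N-biotinylated CGRP captured at low density on a streptavidin chip in HBS-EP (pH 7.4), 1-min injections at 100 μL/min, at least 10 min dissociation.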
(In SPR one partner is held on a chip, and binding of the other changes the refractive index at the surface.)

The target of assay [2] is T2, human α-CGRP 1-37 (WT) (human, C-terminal amide; N-terminal biotin when captured on the SA chip; 125I-labelled in the radioligand assay).
T2 construct: also called α-human
T2 peptide: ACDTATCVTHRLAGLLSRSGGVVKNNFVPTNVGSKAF
Kind of assay: Biacore, 37°C, Fab over CGRP on SA chip. Summed up:
as §1

B1: G1 variant M60 Fab (Fab, V domains shown)
VH: EVQLVESGGGLVQPGGSLRLSCAASGFTFSNYWISWVRQAPGKGLEWVAEIRSKSDNRATFYAEAVKGRFTISRDNAKNSLYLQMNSLRAEDTAVYYCTVYFDYGLAIQNYWGQGTLVTVSS
VL: EIVLTQSPATLSLSPGERATLSCKASKNVDTYVSWYQQKPGQAPRLLIYGASNRYSGIPARFSGSGSGTDFTLTISSLEPEDFAVYYCSQSYNYPYTFGQGTKLEIK
notes: Fab; constant domains as m1
In assay [1], B1 displayed a Kd of 1.51 µM and a koff of 0.0272 s⁻¹. Also, in assay [2], binding was characterised by a dissociation constant (Kd) of 0.00569 µM and the koff worked out at 0.000911 s⁻¹.

B2: G1 variant M71 Fab (Fab, V domains shown)
VH: EVQLVESGGGLVQPGGSLRLSCAASGFTFSNYWISWVRQAPGKGLEWVAEIRSKSDYSATHYAEAVKGRFTISRDNAKNSLYLQMNSLRAEDTAVYYCTVYFDYGLAIQNYWGQGTLVTVSS
VL: EIVLTQSPATLSLSPGERATLSCKASKNVGTYVSWYQQKPGQAPRLLIYGASNRYIGIPARFSGSGSGTDFTLTISSLEPEDFAVYYCSQSYNYPYTFGQGTKLEIK
notes: Fab; constant domains as m1; printed L561 read as L56I
Regarding B2, in assay [1], the affinity, expressed as Kd, was 0.118 µM and the koff worked out at 0.00212 s⁻¹. Moreover, in assay [2], the Kd was 0.008 µM and the koff amounted to 0.00128 s⁻¹.

B3: G1 variant M65 Fab (Fab, V domains shown)
VH: EVQLVESGGGLVQPGGSLRLSCAASGFTFSNYWISWVRQAPGKGLEWVAEIRSKSDCSATHYAEAVKGRFTISRDNAKNSLYLQMNSLRAEDTAVYYCTVYFDYGLAIQNYWGQGTLVTVSS
VL: EIVLTQSPATLSLSPGERATLSCKASKNVGTYVSWYQQKPGQAPRLLIYAASNRYIGIPARFSGSGSGTDFTLTISSLEPEDFAVYYCSQSYNYPYTFGQGTKLEIK
notes: Fab; constant domains as m1
In assay [1], B3 showed a Kd of 0.226 µM and an off-rate constant (koff) of 0.00407 s⁻¹. In assay [2], this molecule had a Kd of 0.00502 µM and a koff of 0.000803 s⁻¹.

B4: G1 variant M64 Fab (Fab, V domains shown)
VH: EVQLVESGGGLVQPGGSLRLSCAASGFTFSNYWISWVRQAPGKGLEWVAEIRSKSDNVATHYAEAVKGRFTISRDNAKNSLYLQMNSLRAEDTAVYYCTVYFDYGLAIQNYWGQGTLVTVSS
VL: EIVLTQSPATLSLSPGERATLSCKASKNVGTYVSWYQQKPGQAPRLLIYAASNRYLGIPARFSGSGSGTDFTLTISSLEPEDFAVYYCSQSYNYPYTFGQGTKLEIK
notes: Fab; constant domains as m1
Take B4: the values for the Kd in assay [1] and in assay [2] were 1.3 µM and 0.00825 µM, respectively. Besides, the results for the koff in assay [1] and in assay [2] were 0.0234 s⁻¹ and 0.00132 s⁻¹, respectively.

B5: G1 variant M69 Fab (Fab, V domains shown)
VH: EVQLVESGGGLVQPGGSLRLSCAASGFTFSNYWISWVRQAPGKGLEWVAEIRSKSDNEATHYAEAVKGRFTISRDNAKNSLYLQMNSLRAEDTAVYYCTVYFDYGLAIQNYWGQGTLVTVSS
VL: EIVLTQSPATLSLSPGERATLSCKASKNVGTYVSWYQQKPGQAPRLLIYGASNRYIGIPARFSGSGSGTDFTLTISSLEPEDFAVYYCSQSYNYPYTFGQGTKLEIK
notes: as for B2
In assay [1], B5 returned a Kd of 0.101 µM and a koff of 0.00181 s⁻¹. In assay [2], this molecule showed a Kd of 0.00458 µM and an off-rate (koff) of 0.000733 s⁻¹.

B6: G1 variant M66 Fab (Fab, V domains shown)
VH: EVQLVESGGGLVQPGGSLRLSCAASGFTFSNYWISWVRQAPGKGLEWVAEIRSKSDESATHYAEAVKGRFTISRDNAKNSLYLQMNSLRAEDTAVYYCTVYFDYGLAIQNYWGQGTLVTVSS
VL: EIVLTQSPATLSLSPGERATLSCKASKNVGTYVSWYQQKPGQAPRLLIYGASNRYIGIPARFSGSGSGTDFTLTISSLEPEDFAVYYCSQSYNYPYTFGQGTKLEIK
notes: as for B2
Consider B6, for which, in assay [1], the dissociation constant Kd was 0.284 µM and the off-rate (koff) amounted to 0.00511 s⁻¹. Moreover, in assay [2], the Kd was determined as 0.00325 µM and the off-rate constant (koff) was 0.00052 s⁻¹.

B7: G1 variant M68 Fab (Fab, V domains shown)
VH: EVQLVESGGGLVQPGGSLRLSCAASGFTFSNYWISWVRQAPGKGLEWVAEIRSKSDNDATHYADAVKGRFTISRDNAKNSLYLQMNSLRAEDTAVYYCTVYFDYGLAIQNYWGQGTLVTVSS
VL: EIVLTQSPATLSLSPGERATLSCKASKNVGTYVSWYQQKPGQAPRLLIYGASNRYIGIPARFSGSGSGTDFTLTISSLEPEDFAVYYCSQSYNYPYTFGQGTKLEIK
notes: as for B2
In assay [1], B7 came in with a Kd of 0.376 µM and a koff of 0.00676 s⁻¹. In addition, in assay [2], the affinity, expressed as Kd, was 0.00268 µM and the koff turned out to be 0.000428 s⁻¹.

B8: G1 variant M61 Fab (Fab, V domains shown)
VH: EVQLVESGGGLVQPGGSLRLSCAASGFTFSNYWISWVRQAPGKGLEWVAEIRSQSDNSATFYAEAVKGRFTISRDNAKNSLYLQMNSLRAEDTAVYYCTVYFDYGLAIQNYWGQGTLVTVSS
VL: EIVLTQSPATLSLSPGERATLSCKASKNVGTYVSWYQQKPGQAPRLLIYGHSNRYLGIPARFSGSGSGTDFTLTISSLEPEDFAVYYCSQSYNYPYTFGQGTKLEIK
notes: Fab; constant domains as m1
In assay [1], B8 came in with a Kd of 0.289 µM and an off-rate constant (koff) of 0.00521 s⁻¹. In assay [2], the Kd came to 0.00287 µM and the koff amounted to 0.000459 s⁻¹.

B9: G1 variant M62 Fab (Fab, V domains shown)
VH: EVQLVESGGGLVQPGGSLRLSCAASGFTFSNYWISWVRQAPGKGLEWVAEIRSKSDNEATHYAEAVKGRFTISRDNAKNSLYLQMNSLRAEDTAVYYCTVYFDYGLAIQNYWGQGTLVTVSS
VL: EIVLTQSPATLSLSPGERATLSCKASKNVGTYVSWYQQKPGQAPRLLIYGHSNRYTGIPARFSGSGSGTDFTLTISSLEPEDFAVYYCSQSYNYPYTFGQGTKLEIK
notes: Fab; constant domains as m1
In assay [1], B9 showed a Kd of 0.242 µM and an off-rate (koff) of 0.00575 s⁻¹. Also, in assay [2], the Kd came out at 0.00586 µM and the koff came to 0.000557 s⁻¹.

B10: G1 variant M63 Fab (Fab, V domains shown)
VH: EVQLVESGGGLVQPGGSLRLSCAASGFTFSNYWISWVRQAPGKGLEWVAEIRSKSDNTATHYAEAVKGRFTISRDNAKNSLYLQMNSLRAEDTAVYYCTVYFDYGLAIQNYWGQGTLVTVSS
VL: EIVLTQSPATLSLSPGERATLSCKASKNVGTYVSWYQQKPGQAPRLLIYAASNRYLGIPARFSGSGSGTDFTLTISSLEPEDFAVYYCSQSYNYPYTFGQGTKLEIK
notes: Fab; constant domains as m1
In assay [1], B10 displayed a Kd of 0.147 µM and a koff of 0.00265 s⁻¹. Also, in assay [2], binding was put at a Kd of 0.00938 µM and the koff came out at 0.0015 s⁻¹.

B11: G1 variant M67 Fab (Fab, V domains shown)
VH: EVQLVESGGGLVQPGGSLRLSCAASGFTFSNYWISWVRQAPGKGLEWVAEIRSKSDFSATHYAEAVKGRFTISRDNAKNSLYLQMNSLRAEDTAVYYCTVYFDYGLAIQNYWGQGTLVTVSS
VL: EIVLTQSPATLSLSPGERATLSCKASKNVGTYVSWYQQKPGQAPRLLIYGASNRYIGIPARFSGSGSGTDFTLTISSLEPEDFAVYYCSQSYNYPYTFGQGTKLEIK
notes: as for B2
With B11, the Kd was determined as 0.095 µM in assay [1] and 0.00513 µM in assay [2]. Besides, the figures for the koff in assay [1] and in assay [2] were 0.00171 s⁻¹ and 0.00082 s⁻¹, respectively.

B12: G1 variant M70 Fab (Fab, V domains shown)
VH: EVQLVESGGGLVQPGGSLRLSCAASGFTFSNYWISWVRQAPGKGLEWVAEIRSKSDSSATHYAEAVKGRFTISRDNAKNSLYLQMNSLRAEDTAVYYCTVYFDYGLAIQNYWGQGTLVTVSS
VL: EIVLTQSPATLSLSPGERATLSCKASKNVGTYVSWYQQKPGQAPRLLIYGASNRYIGIPARFSGSGSGTDFTLTISSLEPEDFAVYYCSQSYNYPYTFGQGTKLEIK
notes: as for B2
In assay [1], B12 yielded a Kd of 0.337 µM and a koff of 0.00607 s⁻¹. In assay [2], the Kd worked out at 0.00349 µM and the koff is 0.000559 s⁻¹.
